Measurements from PMC11708414.

What follows are substances tested against heavy mero-myosin (HMM) (rabbit).

| unregulated myosin ATPase: KM for ACTC protein, 2 mM ATP [µM] | Substance |
| --- | --- |
| 16.6 | R312C cardiac actin variant (R312C-ACTC) (natural protein) |
| 24.8 | R312H cardiac actin variant (R312H-ACTC) (natural protein) |
| 5.63 | wildtype cardiac actin (WT-ACTC) (from UniProt P68032 1-377) (natural protein) |
